Experimental findings from the DeepSol protein solubility set are described below.

This data set is described as follows: soluble on expression in E. coli; label from the status in PepcDB or PDB records.
In the case of “MSLSKIKWWEMSRSFVLDEPETAILQIKPFPLPGLAQVPARIVLSQYRGLFYLNAYQDLDYQQRIYKSAPLPLLSPEDLRNCVSPDNPIQVSDNWPPSNTLDTGITLTPLGFDCSVPPQWQLSLRYLLIDQRDPQHPLLAISHRQDMTQMDFTPLQPISVETGQQWLQALQKFPPWFRAFDSGSGPITLNAYTPPATADSVWKQFRALHEQLRTAKDKGPGIRQVEDFFALHDYRSIAIDHSEYPGLLNDIAYWTSEAGQLNTARNWLLEVLRRDLGRMPTYLNLADLDWALFEQRPLDNIHQGRAIEGYRLYCGMRLQRQMSVPPRVLKRLGLESANPQACQGFWPLVAAADAGDEAEVRRLLASGVSGEVMAEDGRSALLHALDAPHLEIARLLLAHGAHTSGQYQWSTLAMLAMQRDLKDSPDLNQGGRLKFLLQAGVAIDEPNSRGQTPLMKLAEQERNLQGFTWLLQHPQNLDLRTVDDGETALYRAFWSNNYPAMKLLIEAGADLNLSYGRGTCGNEPMGQSLLMLVADKISPDQHSPIVSMQDTLDMFTLLLEKGADPNVGQRCEKKGRPLLLEIIARKKRDDMLKVLQGFAPPAPATAFREGHHHHHH”, the “soluble on expression in E. coli” value was “not soluble”.

Consider “MSLSLDQESIEHDLKLTSEEIFHSNGKYIPPMLNTLGQHLSVRKEFFQNFLTFVAKNFNYKISPELKLDLIEKFEILNCCIKFNSIIRQSDVLNDIWEKTLSNYNLTQNEHLTTKTVVINSPDVFPVIFKQFLNHVVFVLFPSQNQNFKLNVTNLINLCFYDGILEEGEKTIRYELLELDPMEVDTSKLPWFINFDYLNCINQCFFDFTFACEEEGSLDSYKEGLLKIVKILYYQFNQFKIWINTQPVKSVNANDNFININNLYDDNHLDWNHVLCKVNLKEQCIQIAEFYKDLSGLVQTLQTLDEGHHHHHH”, for which the “soluble on expression in E. coli” value is “not soluble”.

Regarding “MSLSMLAVAATALATFAIAPAQAQAEKPKDKVTLMLNWYLYSEHATFFLGKEKGFYAEEGIDLGIQEGRGSAVTAQAVAAKSATFGYIDVTTMIKAAAKGAPLKSTGVLFQVSPMSVMGLSEKNIATPKDIIGKTVAVTPGDSMSQMWPLFLKVNDIRPDQVKVVSGDGQTKLNAVANGQADLLLGYVMDQAIKLQDATGKPVTPIRFADSGVNQISSGIITHKNLLTENPDLVKRFMRASTKAAEAAEKSPEAAVDAMLKAHPKAGVRDTLIVGMKQSVALYHTQETANQRPFRVAMKNVNDSLDLLEGHHHHHH”, the “soluble on expression in E. coli” value is given as “not soluble”.

With “MSLSNIHHLERSLRKLRLTRVGAEWHALEKRALAEGWTPSRYLLTLCNEELLWRESEKLRRYKKEARLPVAKTLSEYDFSQVPELNGAQFRQLCETTDWVDAGENVLLFGASGLGKSHLAAAIVDGVVGQGYRARFYSAGELLQELRKARAQLKLNELLLKLDRYRVIVVDDLGYVKRDSAETGVLFELIAHRYERGSLVITSNHPFSMWGSIFVDETMAVAAADRLIHHGYMFELKGESYRKKTAKAVTSATEGHHHHHH”, the “soluble on expression in E. coli” value is “soluble”.

“MSLSNWPYPRIVAHRGGGKLAPENTLASIDVGAKYGHKMIEFDAKLSKDGEIFLLHDDNLERTSNGWGVAGELNWQDLLRVDAGSWYSKMFKGEPLPLLSQVAERCREHGMMANIEIKPTTGTGPLTGKMVALAARELWAGMTPPLLSSFEIDALEAAQQAAPELPRGLLLDEWRDDWRELTARLGCVSIHLNHKLLNKARVMQLKDAGLRILVYTVNKPQRAAELLRWGVDCICTDAIDVIGPNFTAQEGHHHHHH”: the “soluble on expression in E. coli” value is given as “soluble”.

For the sequence “MSLSQIAVRTFHDIRAALLARRELALLDVREEDPFAQAHPLFAANLPLSRLELEIHARVPRRDTPITVYDDGEGLAPVAAQRLHDLGYSDVALLDGGLSGWRNAGGELFRDVNVPSKAFGELVEAERHTPSLAAEEVQALLDARAEAVILDARRFDEYQTMSIPGGISVPGAELVLRVAELAPDPRTRVIVNCAGRTRSIIGTQSLLNAGIPNPVAALRNGTIGWTLAGQQLEHGQTRRFGAISQDTRKAAAQRARAVADRAGVERLDLAGLAQWQDEHDRTTYLLDVRTPEEYEAGHLPGSRSTPGGQLVQETDHVASVRGARLVLVDDDGVRANMSASWLAQMGWQVAVLDGLSEADFSERGAWSAPLPRQPRADTIDPTTLADWLGEPGTRVLDFTASANYAKRHIPGAAWVLRSQLKQALERLGTAERYVLTCGSSLLARFAVAEVQALSGKPVFLLDGGTSAWVAAGLPTEDGESLLASPRIDRYRRPYEGTDNPREAMQGYLDWEFGLVEQLGRDGTHGFFVIEGGSHHHHHH”, the “soluble on expression in E. coli” value is on record as “soluble”.

As for “MSLSQLAYEKILNLIINGKYKPGNLLKEDELANTLNISRTPVREALARLERDGIIIKSGKSYSVIPLSAEDIIQIYEIRIPLEAEASKLASIRGTEEELKKMLDIIEEIKRVKEDAEPLTLAELNGKLHRTISEASHNKFLADILENIRLKLKIVRVTLFTSFQRREEELREHSEIVTAIIERNPDKAYQLMKEHELNVLEYVKKNILPILFR”, the “soluble on expression in E. coli” value was “soluble”.

Take “MSLSQPNFYQRTHIPYTAYTPEIFQEFVDDYIDSLNSSFVPVKGIHEEQVRDEAVKLYNQLSDSLGVHRPPFPNPRVKTMVFTPFISMVGVTGSMGPFFCEFTLNGDLLPINYPATYTHELAHLLGISSEAEANFYAYQVCTRSQIKGIRFSGYFSILNHVLGNARRLLSEKEYADIINRIRPEIIELAKKNQEYWMAKYSPLIGDVQNWIYDLYLKGNKIESGRKNYSEVIGLLISYQVWKAKTASDEGHHHHHH”: the “soluble on expression in E. coli” value is on record as “soluble”.

Consider “MSLSQQQKQVQKLAMTQQLQQSIQILQFNTEELAAFVEAKALENPLIDLQVDTQYTTDFPITSRSYTNQDEENNYMNQIPDYHLSLFESLIDQIHLNYRDTYLRTLVLFLVEYIDVNGYLTISLEEAAVKTEASAIQMLDALTLLQQLDPAGVGARNLQECLMLQTERDDTAPNLAYILLEEEFDALVSRKWGPLAKKFGIELAEIQLIFDYIQTLSPAPGNIFDATEELYIRPDLTVRIKEDRIVVISNKAGRPTLNFQENYFKRMQETDDKEVQEYIKDKKNEFEWLERAVNQRGDTILRVGQEIVRRQEAFFLEADRPLKPMTLKEIADALSIHESTVSRAVNGKYLETTFGVFELRSFFSTSILSSEEDGEDVSTTMVKKQLQKLIDQEVKSKPLSDQKLVERLKDSGMEISRRTVAKYREALGIPSSSKRKRYEEGHHHHHH”, for which the “soluble on expression in E. coli” value is listed as “soluble”.

As for “MSLSQRGLEALLRPKSIAVIGASMKPNRAGYLMMRNLLAGGFNGPVLPVTPAWKAVLGVLAWPDIASLPFTPDLAVLCTNASRNLALLEELGEKGCKTCIILSAPASQHEDLRACALRHNMRLLGPNSLGLLAPWQGLNASFSPVPIKRGKLAFISQSAAVSNTILDWAQQRKMGFSYFIALGDSLDIDVDELLDYLARDSKTSAILLYLEQLSDARRFVSAARSASRNKPILVIKSGRSPAAQRLLNTTAGMDPAWDAAIQRAGLLRVQDTHELFSAVETLSHMRPLRGDRLMIISNGAAPAALALDALWSRNGKLATLSEETCQKLRDALPEHVAISNPLDLRDDASSEHYIKTLDILLHSQDFDALMVIHSPSAAAPATESAQVLIEAVKHHPRSKYVSLLTNWCGEHSSQEARRLFSEAGLPTYRTPEGTITAFMHMVEYRRNQKQLRETPALPSNLTSNTAEAHLLLQQAIAEGATSLDTHEVQPILQAYGMNTLPTWIASDSTEAVHIAEQIGYPVALKLRSPDIPHKSEVQGVMLYLRTANEVQQAANAIFDRVKMAWPQARVHGLLVQSMANRAGAQELRVVVEHDPVFGPLIMLGEGGVEWRPEDQAVVALPPLNMNLARYLVIQGIKSKKIRARSALRPLDVAGLSQLLVQVSNLIVDCPEIQRLDIHPLLASGSEFTALDVTLDISPFEGDNESRLAVRPYPHQLEEWVELKNGERCLFRPILPEDEPQLQQFISRVTKEDLYYRYFSEINEFTHEDLANMTQIDYDREMAFVAVRRIDQTEEILGVTRAISDPDNIDAEFAVLVRSDLKGLGLGRRLMEKLITYTRDHGLQRLNGITMPNNRGMVALARKLGFNVDIQLEEGIVGLTLNLAQREESEGGSHHHHHH”, the “soluble on expression in E. coli” value is listed as “soluble”.

“MSLSRKRKSYSAEFKTRVVLELLGGEETVAQIASKYEITPKSLIDWKKQFLENASLVFDVGSATKAYKDEIEELKTENDALAKKLGKTTIERDWAVGKLKSLGLSNKKDLVTPKLKNLSMARQCEIIDLNRSTLYYEPKPISDNDLKIMKRIDEIYTDISSTYGYRFMHRQLLEDGFSIGVNKVNKLMNTMGIQAIFPKKKRHTSIKNYKHKIYPYLLRELEINRANQVWSGDITYIPIKGGFVYLCAIIDWHSKTILSWKISTTMDTSLVTDVLKEAIEKYDIPVIFNSDQGSQYTSHEHTELLKKHNIQISMNGKGRSIDNIAIERFFRTLKYDEIYINEYSSISDLRFKVSRYINFYNHNRFHSALNYQKPMNVYLEGLKNVAEGHHHHHH”: the “soluble on expression in E. coli” value is given as “not soluble”.
